What was measured:
Assay in all cases: native gel or EMSA
[1] = molecular target: T1, PhoEF-2 F205S (Pyrococcus horikoshii, UniProt O59521 1-732, F205S)
T1 sequence (looked up): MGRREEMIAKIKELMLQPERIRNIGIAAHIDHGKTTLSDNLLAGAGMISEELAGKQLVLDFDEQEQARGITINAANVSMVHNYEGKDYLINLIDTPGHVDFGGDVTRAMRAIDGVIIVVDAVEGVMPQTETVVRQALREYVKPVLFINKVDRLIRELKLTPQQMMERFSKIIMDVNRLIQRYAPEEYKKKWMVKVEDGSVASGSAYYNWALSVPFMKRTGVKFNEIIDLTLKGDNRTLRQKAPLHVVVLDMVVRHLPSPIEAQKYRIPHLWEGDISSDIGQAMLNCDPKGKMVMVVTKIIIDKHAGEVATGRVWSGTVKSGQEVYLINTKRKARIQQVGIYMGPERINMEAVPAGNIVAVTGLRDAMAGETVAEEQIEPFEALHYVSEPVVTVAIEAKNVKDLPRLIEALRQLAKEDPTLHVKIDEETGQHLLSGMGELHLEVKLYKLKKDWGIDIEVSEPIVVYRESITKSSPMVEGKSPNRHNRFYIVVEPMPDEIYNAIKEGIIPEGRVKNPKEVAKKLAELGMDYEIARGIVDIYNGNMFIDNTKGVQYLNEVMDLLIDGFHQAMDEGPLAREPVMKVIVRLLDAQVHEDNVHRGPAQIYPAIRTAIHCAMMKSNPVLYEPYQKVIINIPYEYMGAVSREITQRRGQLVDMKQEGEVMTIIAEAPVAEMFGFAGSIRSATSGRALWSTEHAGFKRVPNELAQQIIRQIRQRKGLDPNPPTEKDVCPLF

[2] = molecular target: T2, PhoEF-2 M168S (Pyrococcus horikoshii, UniProt O59521 1-732, M168S)
T2 sequence (looked up): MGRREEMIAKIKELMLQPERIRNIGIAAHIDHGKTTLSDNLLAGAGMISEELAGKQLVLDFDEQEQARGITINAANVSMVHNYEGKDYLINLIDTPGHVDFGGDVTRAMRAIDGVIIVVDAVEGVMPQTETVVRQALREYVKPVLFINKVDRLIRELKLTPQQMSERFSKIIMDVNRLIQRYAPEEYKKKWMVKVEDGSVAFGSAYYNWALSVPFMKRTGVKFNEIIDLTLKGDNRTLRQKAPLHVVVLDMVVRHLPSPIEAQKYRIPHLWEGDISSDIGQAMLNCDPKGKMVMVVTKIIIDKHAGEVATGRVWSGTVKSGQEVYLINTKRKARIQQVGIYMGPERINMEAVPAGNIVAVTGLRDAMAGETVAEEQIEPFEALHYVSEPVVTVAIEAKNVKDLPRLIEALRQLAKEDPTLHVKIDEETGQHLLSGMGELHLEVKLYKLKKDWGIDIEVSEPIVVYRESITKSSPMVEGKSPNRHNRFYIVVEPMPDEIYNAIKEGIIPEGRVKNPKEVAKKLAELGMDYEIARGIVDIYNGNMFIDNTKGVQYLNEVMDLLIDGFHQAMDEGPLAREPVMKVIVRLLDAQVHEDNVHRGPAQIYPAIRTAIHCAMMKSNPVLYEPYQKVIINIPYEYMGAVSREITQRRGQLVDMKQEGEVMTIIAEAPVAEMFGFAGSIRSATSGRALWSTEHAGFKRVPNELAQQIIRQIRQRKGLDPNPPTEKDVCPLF

[3] = molecular target: T3, PhoEF-2 F171S (Pyrococcus horikoshii, UniProt O59521 1-732, F171S)
T3 sequence (looked up): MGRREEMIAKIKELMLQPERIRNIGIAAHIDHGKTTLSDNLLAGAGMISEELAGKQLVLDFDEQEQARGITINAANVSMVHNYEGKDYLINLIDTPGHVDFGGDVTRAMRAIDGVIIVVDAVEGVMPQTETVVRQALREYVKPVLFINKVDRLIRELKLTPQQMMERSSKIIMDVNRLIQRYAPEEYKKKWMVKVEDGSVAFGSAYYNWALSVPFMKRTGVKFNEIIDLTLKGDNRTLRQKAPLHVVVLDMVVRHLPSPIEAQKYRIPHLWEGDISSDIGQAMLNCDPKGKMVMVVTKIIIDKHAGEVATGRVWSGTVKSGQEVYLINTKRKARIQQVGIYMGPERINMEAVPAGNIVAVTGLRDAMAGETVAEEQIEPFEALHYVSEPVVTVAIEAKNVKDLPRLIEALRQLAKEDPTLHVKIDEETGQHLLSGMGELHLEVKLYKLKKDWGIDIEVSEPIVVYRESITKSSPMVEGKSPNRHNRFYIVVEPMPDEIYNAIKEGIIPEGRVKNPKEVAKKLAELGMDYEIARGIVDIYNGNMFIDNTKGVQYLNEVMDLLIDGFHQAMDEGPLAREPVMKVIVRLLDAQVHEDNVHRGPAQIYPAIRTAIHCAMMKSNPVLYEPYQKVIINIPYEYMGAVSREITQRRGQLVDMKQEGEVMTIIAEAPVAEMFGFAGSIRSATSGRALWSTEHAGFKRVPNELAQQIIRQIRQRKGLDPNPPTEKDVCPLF

Measured: binding result

B1: Pyrococcus horikoshii ribosomal stalk protein P1 (natural protein, UniProt O57705 1-108, looked up)
chain: MEYVYAALLLHSVGKEINEENLKAVLQAAGVEPEEARIKALVAALEGVNIDEVIEKAAMPVAVAAAPAAAPAEAGGEEKKEEEKKEEEEKEEEVSEEEALAGLSALFG
modifications: in the SPR only: biotin on amino groups via a PEG linker (EZ-Link NHS-PEG4-Biotin)
binds: all assays above

Source: paper PMC5887453 (Nucleic Acids Research, 2018)
